*1 amine or outer side, *2 acyl side, *3 side chain or, on linkers, in order; H or OH if unused. Where no end group is shown, it is not given here. Side-chain parts run from the residue outwards. [ ]: non-standard residue; d: D form. The star is where a group is joined. C20 diacid = O=C(O)CCCCCCCCCCCCCCCCCCC(=O)*; C18 diacid = O=C(O)CCCCCCCCCCCCCCCCC(=O)*; γGlu = O=C(O)[C@H](CCC(=O)[*:2])N[*:1]; Nle = CCCC[C@H](N)C(=O)O; AEEA = NCCOCCOCC(=O)O; Aib = CC(C)(N)C(=O)O
B1: N{Epsilon-24}-[(4S)-4-carboxy-4-[[(4S)-4-carboxy-4-[[(4S)-4-carboxy-4-[[(4S)-4-carboxy-4-[[4-[(19-carboxynonadecanoylamino)methyl]cyclohexanecarbonyl]amino]buta … (peptide)
peptide: Y[Aib]EGTFISDYSIA[Nle]DKIHQEDFVK([γGlu-γGlu-γGlu-γGlu-4‑(aminomethyl)cyclohexanecarbonyl-C20 diacid])WLLAQKG
B2: N{1}-acetyl,N{Epsilon-24}-[(4S)-4-carboxy-4-[[(4S)-4-carboxy-4-[[(4S)-4-carboxy-4-[[4-[(19-carboxynonadecanoylamino)methyl]cyclohexanecarbonyl]amino]butanoyl]am … (peptide)
peptide: Ac-[dY]AEGTFISDYSIA[Nle]DKIRQQDFVK([γGlu-γGlu-γGlu-4‑(aminomethyl)cyclohexanecarbonyl-C20 diacid])WLLAQKP-NH2
B3: N{Epsilon-24}-[(4S)-4-carboxy-4-[[(4S)-4-carboxy-4-[[(4S)-4-carboxy-4-[[4-[(19-carboxynonadecanoylamino)methyl]cyclohexanecarbonyl]amino]butanoyl]amino]butanoyl … (peptide)
peptide: Y[Aib]EGTFISDYSIA[Nle]DAIRQQDFVK([γGlu-γGlu-γGlu-4‑(aminomethyl)cyclohexanecarbonyl-C20 diacid])WLLAQKG
B4: N{Epsilon-24}-[(4S)-4-carboxy-4-[[(4S)-4-carboxy-4-[[(4S)-4-carboxy-4-[[4-[(19-carboxynonadecanoylamino)methyl]cyclohexanecarbonyl]amino]butanoyl]amino]butanoyl … (peptide)
peptide: Y[Aib]EGTFISDYSIA[Nle]DKIRQ[Aib]DFVK([γGlu-γGlu-γGlu-4‑(aminomethyl)cyclohexanecarbonyl-C20 diacid])WLLAQKG
B5: N{Epsilon-24}-[(4S)-4-carboxy-4-[[(4S)-4-carboxy-4-[[(4S)-4-carboxy-4-[[4-[(19-carboxynonadecanoylamino)methyl]cyclohexanecarbonyl]amino]butanoyl]amino]butanoyl … (peptide)
peptide: Y[Aib]EGTFISDYSIA[Nle]DKIRQEDFVK([γGlu-γGlu-γGlu-4‑(aminomethyl)cyclohexanecarbonyl-C20 diacid])WLLAQKG
B6: N{1}-acetyl,N{Epsilon-24}-[2-[2-[2-[[2-[2-[2-[[(4S)-4-carboxy-4-(17-carboxyheptadecanoylamino)butanoyl]amino]ethoxy]ethoxy]acetyl]amino]ethoxy]ethoxy]acetyl]-[D … (peptide)
peptide: Ac-[dY]AEGTFISDYSIA[Nle]DKIRQQDFVK([AEEA-AEEA-γGlu-C18 diacid])WLLAQKG
B7: N{Epsilon-24}-[(4S)-4-carboxy-4-[[(4S)-4-carboxy-4-[[(4S)-4-carboxy-4-[[4-[(19-carboxynonadecanoylamino)methyl]cyclohexanecarbonyl]amino]butanoyl]amino]butanoyl … (peptide)
peptide: Y[Aib]EGTFISDYSIA[Nle]DKIHQQDFVK([γGlu-γGlu-γGlu-4‑(aminomethyl)cyclohexanecarbonyl-C20 diacid])WLLAQKP-NH2
B8: N{1}-acetyl,N{Epsilon-24}-[(4S)-4-carboxy-4-[[(4S)-4-carboxy-4-[[(4S)-4-carboxy-4-(17-carboxyheptadecanoylamino)butanoyl]amino]butanoyl]amino]butanoyl]-[D-Tyr1, … (peptide)
peptide: Ac-[dY]AEGTFISDYSIA[Nle]DKIRQQDFVK([γGlu-γGlu-γGlu-C18 diacid])WLLAQKG
B9: N{1}-acetyl,N{Epsilon-24}-[(4S)-4-carboxy-4-[[(4S)-4-carboxy-4-[[(4S)-4-carboxy-4-[[4-[(19-carboxynonadecanoylamino)methyl]cyclohexanecarbonyl]amino]butanoyl]am … (peptide)
peptide: Ac-[dY][Aib]EGTFISDYSIA[Nle]DKIHQQDFVK([γGlu-γGlu-γGlu-4‑(aminomethyl)cyclohexanecarbonyl-C20 diacid])WLLAQKP-NH2
B10: N{1}-acetyl,N{Epsilon-24}-[(4S)-4-carboxy-4-[[(4S)-4-carboxy-4-[[(4S)-4-carboxy-4-(17-carboxyheptadecanoylamino)butanoyl]amino]butanoyl]amino]butanoyl]-[Nle14,A … (peptide)
peptide: Ac-YAEGTFISDYSIA[Nle]DKIRQQDFVK([γGlu-γGlu-γGlu-C18 diacid])WLLAQKG
B11: N{Epsilon-24}-[(4S)-4-carboxy-4-[[(4S)-4-carboxy-4-[[(4S)-4-carboxy-4-[[(4S)-4-carboxy-4-(17-carboxyheptadecanoylamino)butanoyl]amino]butanoyl]amino]butanoyl]am … (peptide)
peptide: Y[Aib]EGTFISDYSIA[Nle]DKIHQEDFVK([γGlu-γGlu-γGlu-γGlu-C18 diacid])WLLAQKG
B12: N{Epsilon-24}-[(4S)-4-carboxy-4-[[(4S)-4-carboxy-4-[[(4S)-4-carboxy-4-(17-carboxyheptadecanoylamino)butanoyl]amino]butanoyl]amino]butanoyl]-[Aib2,Nle14,Arg18,Gl … (peptide)
peptide: Y[Aib]EGTFISDYSIA[Nle]DKIRQEDFVK([γGlu-γGlu-γGlu-C18 diacid])WLLAQKG
B13: N{Epsilon-24}-[(4S)-4-carboxy-4-[[(4S)-4-carboxy-4-[[(4S)-4-carboxy-4-(17-carboxyheptadecanoylamino)butanoyl]amino]butanoyl]amino]butanoyl]-[Aib2,Nle14,Arg18,Ai … (peptide)
peptide: Y[Aib]EGTFISDYSIA[Nle]DKIRQ[Aib]DFVK([γGlu-γGlu-γGlu-C18 diacid])WLLAQKG
B14: N{Epsilon-24}-[(4S)-4-carboxy-4-[[(4S)-4-carboxy-4-[[(4S)-4-carboxy-4-(17-carboxyheptadecanoylamino)butanoyl]amino]butanoyl]amino]butanoyl]-[Aib2,Nle14,Ala16,Ar … (peptide)
peptide: Y[Aib]EGTFISDYSIA[Nle]DAIRQQDFVK([γGlu-γGlu-γGlu-C18 diacid])WLLAQKG
B15: N{Epsilon-24}-[(4S)-4-carboxy-4-[[(4S)-4-carboxy-4-[[(4S)-4-carboxy-4-(17-carboxyheptadecanoylamino)butanoyl]amino]butanoyl]amino]butanoyl]-[Aib2,Nle14,Lys24]-h … (peptide)
peptide: Y[Aib]EGTFISDYSIA[Nle]DKIHQQDFVK([γGlu-γGlu-γGlu-C18 diacid])WLLAQKG
B16: N{1}-acetyl,N{Epsilon-24}-[(4S)-4-carboxy-4-[[(4S)-4-carboxy-4-[[(4S)-4-carboxy-4-[[4-[(19-carboxynonadecanoylamino)methyl]cyclohexanecarbonyl]amino]butanoyl]am … (peptide)
peptide: Ac-[dY]AEGTFISDYSIA[Nle]DKIHQQDFVK([γGlu-γGlu-γGlu-4‑(aminomethyl)cyclohexanecarbonyl-C20 diacid])WLLAQKP-NH2
B17: N{1}-acetyl,N{Epsilon-24}-[2-[2-[2-[[2-[2-[2-[[(4S)-4-carboxy-4-(17-carboxyheptadecanoylamino)butanoyl]amino]ethoxy]ethoxy]acetyl]amino]ethoxy]ethoxy]acetyl]-[D … (peptide)
peptide: Ac-[dY]AEGTFISDYSIA[Nle]DKIRQEDFVK([AEEA-AEEA-γGlu-C18 diacid])WLLAQKG
B18: N{1}-acetyl,N{Epsilon-24}-[(4S)-4-carboxy-4-[[(4S)-4-carboxy-4-[[(4S)-4-carboxy-4-[[4-[(19-carboxynonadecanoylamino)methyl]cyclohexanecarbonyl]amino]butanoyl]am … (peptide)
peptide: Ac-[dY]AEGTFISDYSIA[Nle]DKIHQEDFVK([γGlu-γGlu-γGlu-4‑(aminomethyl)cyclohexanecarbonyl-C20 diacid])WLLAQKG
B19: N{1}-acetyl,N{Epsilon-24}-[(4S)-4-carboxy-4-[[(4S)-4-carboxy-4-[[(4S)-4-carboxy-4-[[4-[(19-carboxynonadecanoylamino)methyl]cyclohexanecarbonyl]amino]butanoyl]am … (peptide)
peptide: Ac-[dY]AEGTFISDYSIA[Nle]DKIHQ[Aib]DFVK([γGlu-γGlu-γGlu-4‑(aminomethyl)cyclohexanecarbonyl-C20 diacid])WLLAQKG
B20: N{Epsilon-24}-[(4S)-4-carboxy-4-[[(4S)-4-carboxy-4-[[(4S)-4-carboxy-4-(17-carboxyheptadecanoylamino)butanoyl]amino]butanoyl]amino]butanoyl]-[Aib2,Nle14,Lys24,Gl … (peptide)
peptide: Y[Aib]EGTFISDYSIA[Nle]DKIHQQDFVK([γGlu-γGlu-γGlu-C18 diacid])WLLAQKGKENDWKHNITQ
B21: N{Epsilon-24}-[(4S)-4-carboxy-4-[[(4S)-4-carboxy-4-[[(4S)-4-carboxy-4-[[4-[(19-carboxynonadecanoylamino)methyl]cyclohexanecarbonyl]amino]butanoyl]amino]butanoyl … (peptide)
peptide: Y[Aib]EGTFISDYSIA[Nle]DKIRQQDFVK([γGlu-γGlu-γGlu-4‑(aminomethyl)cyclohexanecarbonyl-C20 diacid])WLLAQKGKEEDWKHNITQ
B22: N{1}-acetyl,N{Epsilon-24}-[2-[2-[2-[[2-[2-[2-[[(4S)-4-carboxy-4-(17-carboxyheptadecanoylamino)butanoyl]amino]ethoxy]ethoxy]acetyl]amino]ethoxy]ethoxy]acetyl]-[D … (peptide)
peptide: Ac-[dY]AEGTFISDYSIADDKIRQEDFVK([AEEA-AEEA-γGlu-C18 diacid])WLLAQKG
B23: N{Epsilon-24}-[2-[2-[2-[[2-[2-[2-[[(4S)-4-carboxy-4-[[4-[(19-carboxynonadecanoylamino)methyl]cyclohexanecarbonyl]amino]butanoyl]amino]ethoxy]ethoxy]acetyl]amino … (peptide)
peptide: Y[Aib]EGTFISDYSIA[Nle]DKIRQQDFVK([AEEA-AEEA-γGlu-4‑(aminomethyl)cyclohexanecarbonyl-C20 diacid])WLLAQKGKEEDWKHNITQ
B24: N{1}-acetyl,N{Epsilon-24}-[2-[2-[2-[[2-[2-[2-[[(4S)-4-carboxy-4-[[(4S)-4-carboxy-4-[[(4S)-4-carboxy-4-(17-carboxyheptadecanoylamino)butanoyl]amino]butanoyl]amin … (peptide)
peptide: Ac-[dY]AEGTFISDYSIA[Nle]DKIRQQDFVK([AEEA-AEEA-γGlu-γGlu-γGlu-C18 diacid])WLLAQKG
B25: N{1}-acetyl,N{Epsilon-24}-[(4S)-4-carboxy-4-[[(4S)-4-carboxy-4-[[(4S)-4-carboxy-4-[[4-[(19-carboxynonadecanoylamino)methyl]cyclohexanecarbonyl]amino]butanoyl]am … (peptide)
peptide: Ac-[dY]AEGTFISDYSIA[Nle]DKIRQQDFVK([γGlu-γGlu-γGlu-4‑(aminomethyl)cyclohexanecarbonyl-C20 diacid])WLLAQKG

How the values were obtained:
Assay in all cases: cell-based or functional assay
[1] = target: T1, human GIP receptor (human) (UniProt P48546)
T1 sequence (looked up): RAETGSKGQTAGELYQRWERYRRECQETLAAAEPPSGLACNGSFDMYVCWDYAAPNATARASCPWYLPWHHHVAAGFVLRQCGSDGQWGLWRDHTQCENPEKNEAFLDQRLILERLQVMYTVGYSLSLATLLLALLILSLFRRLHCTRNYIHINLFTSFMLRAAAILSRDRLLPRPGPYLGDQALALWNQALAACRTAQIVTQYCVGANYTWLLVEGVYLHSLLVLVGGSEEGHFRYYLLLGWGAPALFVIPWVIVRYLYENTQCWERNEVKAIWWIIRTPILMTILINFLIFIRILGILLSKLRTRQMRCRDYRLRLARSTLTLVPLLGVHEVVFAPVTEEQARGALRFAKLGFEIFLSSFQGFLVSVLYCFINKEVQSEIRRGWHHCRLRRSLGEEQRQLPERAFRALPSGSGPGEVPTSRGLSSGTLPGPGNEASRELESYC

[2] = target: human GLP-1 receptor (human) (UniProt P43220)
[3] = target: human glucagon receptor (human) (UniProt P47871)
Chain of human glucagon receptor (human) (P47871 26-477): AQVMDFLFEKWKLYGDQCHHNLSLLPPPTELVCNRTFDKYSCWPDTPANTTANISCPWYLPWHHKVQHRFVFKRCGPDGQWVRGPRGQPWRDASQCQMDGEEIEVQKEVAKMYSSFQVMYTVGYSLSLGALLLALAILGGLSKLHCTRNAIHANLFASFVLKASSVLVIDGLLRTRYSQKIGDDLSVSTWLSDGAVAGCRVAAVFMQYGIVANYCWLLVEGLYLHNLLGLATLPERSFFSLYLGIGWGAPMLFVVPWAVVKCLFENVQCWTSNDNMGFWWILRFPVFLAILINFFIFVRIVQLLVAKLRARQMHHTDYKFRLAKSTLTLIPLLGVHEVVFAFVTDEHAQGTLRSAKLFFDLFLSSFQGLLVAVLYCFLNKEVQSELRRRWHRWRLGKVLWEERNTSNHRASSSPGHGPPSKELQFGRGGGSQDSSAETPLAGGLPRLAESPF

Chain of human GLP-1 receptor (human) (P43220 24-463): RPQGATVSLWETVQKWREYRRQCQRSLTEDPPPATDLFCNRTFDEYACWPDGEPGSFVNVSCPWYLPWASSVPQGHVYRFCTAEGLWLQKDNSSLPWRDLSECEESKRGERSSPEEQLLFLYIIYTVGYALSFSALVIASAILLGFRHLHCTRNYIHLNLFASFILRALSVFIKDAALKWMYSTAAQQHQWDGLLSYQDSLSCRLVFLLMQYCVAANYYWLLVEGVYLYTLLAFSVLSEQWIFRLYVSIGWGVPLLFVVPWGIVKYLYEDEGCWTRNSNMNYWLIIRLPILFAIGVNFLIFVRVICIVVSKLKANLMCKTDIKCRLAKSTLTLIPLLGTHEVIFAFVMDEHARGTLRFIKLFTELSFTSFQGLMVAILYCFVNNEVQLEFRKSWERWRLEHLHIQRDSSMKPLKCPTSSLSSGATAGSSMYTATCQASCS

Row | Molecule | EC50 (pM), hGIP-R CRE Luc, 0.2% HSA [1] | other results
1 | N{Epsilon-24}-[(4S)-4-carboxy-4-[[(4S)-4-carboxy-4-[[(4S)-4-carboxy-4-[[4-[(19-carboxynonadecanoylamino)methyl]cyclohexanecarbonyl]amino]butanoyl]amino]butanoyl]amino]butanoyl]-[Aib2,Nle14,Arg18,Lys24,Pro31]-hGIP(1-31) amide (peptide) | 61.5 pM | –
2 | N{1}-acetyl,N{Epsilon-24}-[(4S)-4-carboxy-4-[[(4S)-4-carboxy-4-[[(4S)-4-carboxy-4-(17-carboxyheptadecanoylamino)butanoyl]amino]butanoyl]amino]butanoyl]-[D-Tyr1,Aib2,Nle14,Arg18,Lys24,Pro31]-hGIP(1-31) amide (peptide) | 21.2 pM | EC50 (pM), hGLP-1-R CRE Luc, 0.2% HSA [2]: > 100000 pM
3 | N{Epsilon-24}-[2-[2-[2-[[2-[2-[2-[[(4S)-4-carboxy-4-[[4-[(19-carboxynonadecanoylamino)methyl]cyclohexanecarbonyl]amino]butanoyl]amino]ethoxy]ethoxy]acetyl]amino]ethoxy]ethoxy]acetyl]-[Aib2,Nle14,Arg18,Lys24]-hGIP(1-31) (peptide) | 44.7 pM | –
4 | N{1}-acetyl,N{Epsilon-24}-[(4S)-4-carboxy-4-[[(4S)-4-carboxy-4-[[(4S)-4-carboxy-4-[[(4S)-4-carboxy-4-[[4-[(19-carboxynonadecanoylamino)methyl]cyclohexanecarbonyl]amino]butanoyl]amino]butanoyl]amino]butanoyl]amino]butanoyl]-[D-Tyr1,Aib2,Nle14,Arg18,Lys24,Pro31]-hGIP(1-31) amide (peptide) | 26.1 pM | EC50 (pM), hGcg-R CRE Luc, 1% HSA (footnote *) [3]: > 100000 pM
5 | N{Epsilon-24}-[(4S)-4-carboxy-4-[[(4S)-4-carboxy-4-[[(4S)-4-carboxy-4-[[4-[(19-carboxynonadecanoylamino)methyl]cyclohexanecarbonyl]amino]butanoyl]amino]butanoyl]amino]butanoyl]-[Aib2,Nle14,Arg18,Lys24]-hGIP(1-31) (peptide) | 72.1 pM | –
6 | N{1}-acetyl,N{Epsilon-24}-[(4S)-4-carboxy-4-[[(4S)-4-carboxy-4-[[(4S)-4-carboxy-4-[[4-[(19-carboxynonadecanoylamino)methyl]cyclohexanecarbonyl]amino]butanoyl]amino]butanoyl]amino]butanoyl]-[D-Tyr1,Aib2,Nle14,Arg18,Lys24]-hGIP(1-31) (peptide) | 135 pM | –
7 | N{1}-acetyl, N{Epsilon-24}-[(4S)-4-carboxy-4-[[(4S)-4-carboxy-4-[[(4S)-4-carboxy-4-(17-carboxyheptadecanoylamino)butanoyl]amino]butanoyl]amino]butanoyl]-[D-Tyr1,Aib2,Nle14,Arg18,Lys24]-hGIP(1-31) (peptide) | 20.9 pM | –
8 | B1 | 810 pM | –
9 | B2 | 76.2 pM | –
10 | B3 | 266 pM | –
11 | B4 | 71.2 pM | –
12 | B5 | 252 pM | –
13 | B6 | 30.4 pM | –
14 | B7 | 67.5 pM | –
15 | B8 | 48.9 pM | –
16 | B9 | 38.4 pM | –

Row | Molecule | EC50 (pM), hGIP-R CRE Luc, 0.2% HSA [1] | other results
17 | B10 | 546 pM | –
18 | B11 | 158 pM | –
19 | B12 | 62.9 pM | –
20 | B13 | 9.4 pM | –
21 | B14 | 72.5 pM | –
22 | B15 | 49.9 pM | EC50 (pM), hGLP-1-R CRE Luc, 1% HSA (footnote *) [2]: > 100000 pM; EC50 (pM), hGcg-R CRE Luc, 1% HSA (footnote *) [3]: > 100000 pM
23 | B16 | 71.2 pM | –
24 | B17 | 25 pM | –
25 | B18 | 547 pM | –
26 | B19 | 153 pM | –
27 | B20 | 21.3 pM | EC50 (pM), hGLP-1-R CRE Luc, 1% HSA (footnote *) [2]: > 100000 pM; EC50 (pM), hGcg-R CRE Luc, 1% HSA (footnote *) [3]: > 100000 pM
28 | B21 | 22 pM | –
29 | B22 | 91.5 pM | –
30 | B23 | 14 pM | –
31 | B24 | 43.1 pM | –
32 | B25 | 180 pM | –

— US20190367578A1 (Novo Nordisk, published 2019)
